Target: T1, endothelial nitric oxide synthase (eNOS) of cultured bovine aorta endothelial cells (BAEC) (bovine, UniProt P29473 2-1205)
T1 sequence (looked up): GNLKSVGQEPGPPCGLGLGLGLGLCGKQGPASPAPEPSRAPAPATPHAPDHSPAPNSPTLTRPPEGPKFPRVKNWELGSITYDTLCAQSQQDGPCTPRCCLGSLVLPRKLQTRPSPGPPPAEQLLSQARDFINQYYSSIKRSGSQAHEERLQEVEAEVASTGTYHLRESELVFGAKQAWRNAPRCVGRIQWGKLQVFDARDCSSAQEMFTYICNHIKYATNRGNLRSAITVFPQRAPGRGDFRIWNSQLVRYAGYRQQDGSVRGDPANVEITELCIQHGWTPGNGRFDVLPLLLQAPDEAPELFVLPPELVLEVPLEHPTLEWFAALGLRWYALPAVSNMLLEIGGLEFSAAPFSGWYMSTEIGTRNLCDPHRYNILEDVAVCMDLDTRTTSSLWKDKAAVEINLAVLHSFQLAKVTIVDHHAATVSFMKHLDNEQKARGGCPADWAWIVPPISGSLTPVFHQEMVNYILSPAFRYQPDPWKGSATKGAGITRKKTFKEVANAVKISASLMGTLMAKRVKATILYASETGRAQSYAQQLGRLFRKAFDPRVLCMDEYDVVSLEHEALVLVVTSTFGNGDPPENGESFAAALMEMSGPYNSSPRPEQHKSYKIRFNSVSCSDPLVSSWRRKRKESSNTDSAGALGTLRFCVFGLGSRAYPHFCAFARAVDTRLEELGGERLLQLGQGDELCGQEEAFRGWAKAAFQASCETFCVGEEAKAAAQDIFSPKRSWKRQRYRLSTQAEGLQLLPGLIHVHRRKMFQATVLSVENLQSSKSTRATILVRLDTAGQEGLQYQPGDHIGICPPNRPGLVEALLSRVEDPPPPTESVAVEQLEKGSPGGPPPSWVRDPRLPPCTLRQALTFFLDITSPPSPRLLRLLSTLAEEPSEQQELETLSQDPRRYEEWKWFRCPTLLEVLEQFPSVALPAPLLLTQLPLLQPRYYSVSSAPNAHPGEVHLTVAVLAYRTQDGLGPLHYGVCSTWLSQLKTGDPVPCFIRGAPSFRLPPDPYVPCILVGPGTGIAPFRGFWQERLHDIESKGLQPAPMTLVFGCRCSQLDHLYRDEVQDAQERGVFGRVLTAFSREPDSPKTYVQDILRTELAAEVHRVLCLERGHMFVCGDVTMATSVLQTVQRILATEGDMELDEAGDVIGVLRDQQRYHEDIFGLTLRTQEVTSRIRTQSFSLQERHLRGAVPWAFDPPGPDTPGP
Assay: cell-based or functional assay

Binder | EC50 of inhibition of VEGF-induced NO release by BAEC (dose response, non-linear regression)
RRPPRDGIWKASFTTFTVTKYWFYR [Endo5-Cav (SEQ ID NO. 1/SEQ ID NO. 5)] | 7.5 µM
RQIKIWFQNRRMKWKKDGIWKASFTTFTVTKYWFYR [AP-Cav (SEQ ID NO. 2/SEQ ID NO. 5)] | 1.8 µM

Reference: patent US20170128520A1 (E AND B TECHNOLOGIES, published 2017)
